Reference: patent publication US20090271163A1 (published 2009)

What was measured:
[1] = target: T1, heavy chain of B-domain deleted human Factor VIII (A1-A2 domains) (human, UniProt P00451 20-1667, oligosaccharide observed linked to Asn 239); assay: X-ray crystal structure
T1 construct: Residues 17-43, 334-376 and 714-754 were not modeled; also called A1-a1-A2-a2
T1 sequence (heavy): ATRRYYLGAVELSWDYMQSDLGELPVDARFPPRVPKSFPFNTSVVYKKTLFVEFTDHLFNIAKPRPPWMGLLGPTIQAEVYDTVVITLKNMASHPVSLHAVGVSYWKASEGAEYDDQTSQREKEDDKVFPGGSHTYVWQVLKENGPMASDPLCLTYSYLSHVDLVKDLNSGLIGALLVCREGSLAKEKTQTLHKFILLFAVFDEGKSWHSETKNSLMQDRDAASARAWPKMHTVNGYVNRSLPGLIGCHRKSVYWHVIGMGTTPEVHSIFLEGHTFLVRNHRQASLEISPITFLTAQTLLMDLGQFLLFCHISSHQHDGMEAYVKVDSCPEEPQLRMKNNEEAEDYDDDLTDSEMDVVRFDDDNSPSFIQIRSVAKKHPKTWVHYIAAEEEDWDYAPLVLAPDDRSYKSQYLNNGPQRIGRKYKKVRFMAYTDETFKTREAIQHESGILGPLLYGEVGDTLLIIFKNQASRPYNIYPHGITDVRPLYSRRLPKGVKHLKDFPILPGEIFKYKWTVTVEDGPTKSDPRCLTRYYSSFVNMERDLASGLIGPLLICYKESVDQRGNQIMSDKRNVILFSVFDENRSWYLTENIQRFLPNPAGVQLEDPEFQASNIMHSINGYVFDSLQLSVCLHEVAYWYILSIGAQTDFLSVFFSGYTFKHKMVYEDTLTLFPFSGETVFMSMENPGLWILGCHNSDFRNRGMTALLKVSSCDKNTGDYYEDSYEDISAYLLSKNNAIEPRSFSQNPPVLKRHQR
Text: X-ray diffraction data of Factor VIII crystals were collected at the NE-CAT synchrotron beamline ID-24 of the Advanced Photon Source (APS) at Argonne National Laboratory. All xray data were processed using program HKL2000 (Otwinowski, Z. & Minor, W. (1997) in Methods Enzymol (Academic Press, New York), Vol. 276, pp. 307-326) (Table 1).
For structural determination using the molecular replacement method, a homology structure model of Factor VIII was constructed from the known primary sequence of Factor VIII (McCoy, A. J. (2007) Acta Crystallogr D Biol Crystallogr 63, 32-41). Using the template structures of Factor Vai (PDBID: […]) (Sandberg, H., Almstedt, A., Brandt, J., Castro, V. M., Gray, E., Holmquist, L., Lewin, M., Oswaldsson, U., Mikaelsson, M., Jankowski, M. A., Bond, M. & Scoble, H. A. (2001) Semin Hematol 38, 4-12) and ceruloplasmin (PDBID: 1KCW) (Adams, T. E., Hockin, M. F., Mann, K. G. & Everse, S. J. (2004) Proc Natl Acad Sci U SA 101, 8918-23), the structure of the A1 and A2 domains of Factor VIII were initially determined with AMoRe (Murshudov, G. N., Vagin, A. A. & Dodson, E. J. (1997) Acta Crystallogr D Biol Crystallogr 53, 240-55) using the structure of the A1 and A2 domains of the homology model. This yielded clear rotation function and translation function solutions. […]

[2] = target: the molecule itself; assay: X-ray crystal structure, crystal contact

B1: light chain of B-domain deleted human Factor VIII (A3-C1-C2 domains) (other)
light: EITRTTLQSDQEEIDYDDTISVEMKKEDFDIYDEDENQSPRSFQKKTRHYFIAAVERLWDYGMSSSPHVLRNRAQSGSVPQFKKVVFQEFTDGSFTQPLYRGELNEHLGLLGPYIRAEVEDNIMVTFRNQASRPYSFYSSLISYEEDQRQGAEPRKNFVKPNETKTYFWKVQHHMAPTKDEFDCKAWAYFSDVDLEKDVHSGLIGPLLVCHTNTLNPAHGRQVTVQEFALFLTIFDETKSWYFTENMERNCRAPCNIQMEDPTFKENYRFHAINGYIMDTLPGLVMAQDQRIRWYLLSMGSNENIHSIHFSGHVFTVRKKEEYKMALYNLYPGVFETVEMLPSKAGIWRVECLIGEHLHAGMSTLFLVYSNKCQTPLGMASGHIRDFQITASGQYGQWAPKLARLHYSGSINAWSTKEPFSWIKVDLLAPMIIHGIKTQGARQKFSSLYISQFIIMYSLDGKKWQTYRGNSTGTLMVFFGNVDSSGIKHNIFNPPIIARYIRLHPTHYSIRSTLRMELMGCDLNSCSMPLGMESKAISDAQITASSYFTNMFATWSPSKARLHLQGRSNAWRPQVNNPKEWLQVDFQKTMKVTGVTTQGVKSLLTSMYVKEFLISSSQDGHQWTLFFQNGKVKVFQGNQDSFTPVVNSLDPPLLTRYLRIHPQSWVHQIALRMEVLGCEAQDLY
modifications: oligosaccharides observed linked to Asn 1810 and Asn 2118
notes: Residues 1649-1690 and 1714-1724 were not modeled; also called a3-A3-C1-C2
B1: binds [1].

B2: B-domain deleted human Factor VIII (other)
heavy: ATRRYYLGAVELSWDYMQSDLGELPVDARFPPRVPKSFPFNTSVVYKKTLFVEFTDHLFNIAKPRPPWMGLLGPTIQAEVYDTVVITLKNMASHPVSLHAVGVSYWKASEGAEYDDQTSQREKEDDKVFPGGSHTYVWQVLKENGPMASDPLCLTYSYLSHVDLVKDLNSGLIGALLVCREGSLAKEKTQTLHKFILLFAVFDEGKSWHSETKNSLMQDRDAASARAWPKMHTVNGYVNRSLPGLIGCHRKSVYWHVIGMGTTPEVHSIFLEGHTFLVRNHRQASLEISPITFLTAQTLLMDLGQFLLFCHISSHQHDGMEAYVKVDSCPEEPQLRMKNNEEAEDYDDDLTDSEMDVVRFDDDNSPSFIQIRSVAKKHPKTWVHYIAAEEEDWDYAPLVLAPDDRSYKSQYLNNGPQRIGRKYKKVRFMAYTDETFKTREAIQHESGILGPLLYGEVGDTLLIIFKNQASRPYNIYPHGITDVRPLYSRRLPKGVKHLKDFPILPGEIFKYKWTVTVEDGPTKSDPRCLTRYYSSFVNMERDLASGLIGPLLICYKESVDQRGNQIMSDKRNVILFSVFDENRSWYLTENIQRFLPNPAGVQLEDPEFQASNIMHSINGYVFDSLQLSVCLHEVAYWYILSIGAQTDFLSVFFSGYTFKHKMVYEDTLTLFPFSGETVFMSMENPGLWILGCHNSDFRNRGMTALLKVSSCDKNTGDYYEDSYEDISAYLLSKNNAIEPRSFSQNPPVLKRHQR
light: EITRTTLQSDQEEIDYDDTISVEMKKEDFDIYDEDENQSPRSFQKKTRHYFIAAVERLWDYGMSSSPHVLRNRAQSGSVPQFKKVVFQEFTDGSFTQPLYRGELNEHLGLLGPYIRAEVEDNIMVTFRNQASRPYSFYSSLISYEEDQRQGAEPRKNFVKPNETKTYFWKVQHHMAPTKDEFDCKAWAYFSDVDLEKDVHSGLIGPLLVCHTNTLNPAHGRQVTVQEFALFLTIFDETKSWYFTENMERNCRAPCNIQMEDPTFKENYRFHAINGYIMDTLPGLVMAQDQRIRWYLLSMGSNENIHSIHFSGHVFTVRKKEEYKMALYNLYPGVFETVEMLPSKAGIWRVECLIGEHLHAGMSTLFLVYSNKCQTPLGMASGHIRDFQITASGQYGQWAPKLARLHYSGSINAWSTKEPFSWIKVDLLAPMIIHGIKTQGARQKFSSLYISQFIIMYSLDGKKWQTYRGNSTGTLMVFFGNVDSSGIKHNIFNPPIIARYIRLHPTHYSIRSTLRMELMGCDLNSCSMPLGMESKAISDAQITASSYFTNMFATWSPSKARLHLQGRSNAWRPQVNNPKEWLQVDFQKTMKVTGVTTQGVKSLLTSMYVKEFLISSSQDGHQWTLFFQNGKVKVFQGNQDSFTPVVNSLDPPLLTRYLRIHPQSWVHQIALRMEVLGCEAQDLY
modifications: oligosaccharides observed linked to Asn 1810 and Asn 2118; oligosaccharide observed linked to Asn 239
notes: Expressed in CHO cells and crystallised; heterodimer of heavy and light chain with 2 Cu2+, 1 Ca2+ and three carbohydrate moieties; also called B-domain deleted recombinant Factor VIII (Wyeth); B domain-deleted FVIII
B2: binds [2].
